The source of these data is paper PMC9669022.

The target in assay [1] is porcine brain tubulin (αβ-tubulin dimer) (porcine) (UniProt Q2XVP4).
Assay [2] has the same target. This is another data set of the same source.
Assay [3] has the same target. This is another data set of the same source.

Pbkinesin-8B-MD (domain or fragment): the Km of the MT-stimulated ATPase (GMPCPP-MTs, NADH-coupled assay) in assay [1] came out at 2.5 µM. Also, in assay [2], the Km of the tubulin-stimulated ATPase (unpolymerised tubulin dimer, NADH-coupled assay) came out at 7.6 µM.
Regarding “Pbkinesin-8B-MD-L2^KIF5B (domain or fragment)”, the Km of the GMPCPP-MT-stimulated ATPase, fold change against WT in assay [3] worked out at 2 fold.
Turning to “Pbkinesin-8B-MD-L12^KIF5B (domain or fragment)”, the KmMT of the GMPCPP-MT-stimulated ATPase, fold change against WT in assay [3] came out at 20 fold.
